Experimental findings from patent US20210002376A1 are described below.

Like-named read-outs stand apart in the source and are kept apart here.

The target in assay [1] is DR5-Fc fusion protein (UniProt O14763). Nature of the assay: ELISA, coated DR5-Fc, anti-human Fab-HRP. A general note: In an ELISA, binding on a coated surface is turned into a signal by an enzyme label.
The target is the same in assay [2]. Nature of the assay: ELISA, coated DR5-Fc, anti-human Fab-HRP. This is another data set of the same source.

What is called EC50 is the concentration that produces a half-maximal response. Higher therefore signals a need for much substance. Regarding Drozitumab (antibody), the figures for the EC50 with DR5-Fc fusion protein [1] and in the assay with DR5-Fc fusion protein [2] were 1.2 nM and 1.4 nM, respectively.
